# Ends that are not written are not given here.
# T1: Human hexokinase II (HK‐II), recombinant (human, UniProt P52789 1-917, fluorescently labeled using a NanoTemper BLUE protein‐labeling kit (in the MST))
# T1 chain: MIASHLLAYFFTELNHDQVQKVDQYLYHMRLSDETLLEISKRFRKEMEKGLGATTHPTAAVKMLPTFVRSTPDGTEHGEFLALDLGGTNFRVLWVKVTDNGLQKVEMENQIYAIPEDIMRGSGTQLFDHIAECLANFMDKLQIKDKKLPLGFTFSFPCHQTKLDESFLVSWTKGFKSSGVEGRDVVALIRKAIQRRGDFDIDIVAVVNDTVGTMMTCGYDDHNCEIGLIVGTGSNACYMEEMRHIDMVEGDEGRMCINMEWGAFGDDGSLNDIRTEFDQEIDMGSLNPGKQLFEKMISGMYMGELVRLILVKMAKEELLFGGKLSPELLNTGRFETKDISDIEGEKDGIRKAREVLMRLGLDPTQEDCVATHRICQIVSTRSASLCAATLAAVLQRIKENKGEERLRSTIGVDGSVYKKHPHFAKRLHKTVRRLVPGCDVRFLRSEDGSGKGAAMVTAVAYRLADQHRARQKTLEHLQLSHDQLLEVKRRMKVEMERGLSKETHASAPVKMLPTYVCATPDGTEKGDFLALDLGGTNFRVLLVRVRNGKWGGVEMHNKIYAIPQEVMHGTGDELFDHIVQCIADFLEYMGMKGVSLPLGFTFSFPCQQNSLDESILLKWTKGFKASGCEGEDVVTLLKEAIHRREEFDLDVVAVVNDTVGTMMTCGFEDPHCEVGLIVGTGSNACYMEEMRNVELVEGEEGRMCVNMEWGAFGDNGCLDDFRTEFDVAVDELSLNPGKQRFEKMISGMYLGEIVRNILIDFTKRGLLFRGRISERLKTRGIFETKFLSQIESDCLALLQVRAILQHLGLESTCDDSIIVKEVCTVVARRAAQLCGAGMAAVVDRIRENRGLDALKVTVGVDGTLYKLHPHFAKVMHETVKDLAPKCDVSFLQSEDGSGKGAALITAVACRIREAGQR
# T2: Human hexokinase II (HK‐II), recombinant (human, UniProt P52789 1-917, fluorescently labeled using a NanoTemper BLUE protein‐labeling kit (in the MST))
# T2 construct: hexokinase II (HK‐II), human, cloned into plasmid pET‐His; source: E. coli BL21, IPTG induction, purified (HiTrap nickel column, Blue HiTrap column)
# T2 sequence (looked up): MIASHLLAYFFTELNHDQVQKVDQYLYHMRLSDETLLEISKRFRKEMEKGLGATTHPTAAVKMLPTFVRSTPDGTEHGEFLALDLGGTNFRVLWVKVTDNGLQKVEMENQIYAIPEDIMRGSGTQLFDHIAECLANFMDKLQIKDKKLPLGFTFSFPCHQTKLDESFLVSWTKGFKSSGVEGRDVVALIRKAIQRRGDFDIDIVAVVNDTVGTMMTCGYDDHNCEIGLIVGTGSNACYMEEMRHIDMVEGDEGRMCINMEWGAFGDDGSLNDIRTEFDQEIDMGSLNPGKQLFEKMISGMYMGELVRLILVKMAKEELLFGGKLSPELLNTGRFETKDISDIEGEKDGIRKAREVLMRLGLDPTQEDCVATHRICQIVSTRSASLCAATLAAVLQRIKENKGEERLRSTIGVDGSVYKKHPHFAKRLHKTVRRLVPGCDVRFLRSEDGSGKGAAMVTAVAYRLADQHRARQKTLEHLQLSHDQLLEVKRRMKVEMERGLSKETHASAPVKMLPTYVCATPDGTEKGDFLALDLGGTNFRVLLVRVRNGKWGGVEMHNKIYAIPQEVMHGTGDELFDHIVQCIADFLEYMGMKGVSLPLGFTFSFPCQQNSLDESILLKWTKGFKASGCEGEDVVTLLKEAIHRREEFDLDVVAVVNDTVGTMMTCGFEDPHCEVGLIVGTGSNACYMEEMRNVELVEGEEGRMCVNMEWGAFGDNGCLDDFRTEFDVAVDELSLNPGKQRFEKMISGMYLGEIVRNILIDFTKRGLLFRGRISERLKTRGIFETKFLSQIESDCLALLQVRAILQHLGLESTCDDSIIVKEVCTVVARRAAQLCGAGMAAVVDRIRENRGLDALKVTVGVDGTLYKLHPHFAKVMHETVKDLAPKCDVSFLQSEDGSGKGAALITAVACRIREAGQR
# B1: Human hexokinase I (HK‐I), recombinant (enzyme, UniProt P19367 1-917, looked up)
# chain: MIAAQLLAYYFTELKDDQVKKIDKYLYAMRLSDETLIDIMTRFRKEMKNGLSRDFNPTATVKMLPTFVRSIPDGSEKGDFIALDLGGSSFRILRVQVNHEKNQNVHMESEVYDTPENIVHGSGSQLFDHVAECLGDFMEKRKIKDKKLPVGFTFSFPCQQSKIDEAILITWTKRFKASGVEGADVVKLLNKAIKKRGDYDANIVAVVNDTVGTMMTCGYDDQHCEVGLIIGTGTNACYMEELRHIDLVEGDEGRMCINTEWGAFGDDGSLEDIRTEFDREIDRGSLNPGKQLFEKMVSGMYLGELVRLILVKMAKEGLLFEGRITPELLTRGKFNTSDVSAIEKNKEGLHNAKEILTRLGVEPSDDDCVSVQHVCTIVSFRSANLVAATLGAILNRLRDNKGTPRLRTTVGVDGSLYKTHPQYSRRFHKTLRRLVPDSDVRFLLSESGSGKGAAMVTAVAYRLAEQHRQIEETLAHFHLTKDMLLEVKKRMRAEMELGLRKQTHNNAVVKMLPSFVRRTPDGTENGDFLALDLGGTNFRVLLVKIRSGKKRTVEMHNKIYAIPIEIMQGTGEELFDHIVSCISDFLDYMGIKGPRMPLGFTFSFPCQQTSLDAGILITWTKGFKATDCVGHDVVTLLRDAIKRREEFDLDVVAVVNDTVGTMMTCAYEEPTCEVGLIVGTGSNACYMEEMKNVEMVEGDQGQMCINMEWGAFGDNGCLDDIRTHYDRLVDEYSLNAGKQRYEKMISGMYLGEIVRNILIDFTKKGFLFRGQISETLKTRGIFETKFLSQIESDRLALLQVRAILQQLGLNSTCDDSILVKTVCGVVSRRAAQLCGAGMAAVVDKIRENRGLDRLNVTVGVDGTLYKLHPHFSRIMHQTVKELSPKCNVSFLLSEDGSGKGAALITAVGVRLRTEASS
# modifications: fluorescently labeled using a NanoTemper BLUE protein‐labeling kit (in the MST)
# Key:
# PWR‐1E = experiment: Cell death, PI staining and FACS; format: cell-based; conditions: 6 h, PI/FACS (Fig. 2G)
# Experimental: (§1) Leukemia cells, U‐937, MEC‐1 cells (4 × 10^5 or 8 × 10^5 cells/sample, respectively), as well as other leukemia or suspension cell lines, were incubated in 200 μL serum‐free medium with various concentrations of the peptide for 90 min at 23–25 °C, collected by centrifugation (500 g, 5 min), washed with PBS, and analyzed for cell death. Adherent cells (6 × 10^5 mL^−1 at 70–80% confluence) were incubated with the peptide of interest in 500 μL serum‐free recommended culture medium for 3–6 h at 37 °C and 5% CO2. The cells were then trypsinized, centrifuged (1500 g, 5 min), washed with PBS, and analyzed for the desired activity. Following peptide treatment, cells were subjected to cell death analysis. […] PRO software (BD Biosciences, San Jose, CA, USA).
# (§2) For each line, cells were incubated with different peptide concentrations, and cell death was determined by PI staining and FACS analysis (Figs 1, 2, 3).
# T‐Rex‐293 = experiment: Cell death, PI staining and FACS; format: cell-based, human
# Experimental: as §1, §2
# PANC1 = experiment: Cell death, PI staining and FACS; format: cell-based; conditions: PANC1 (Group 3, Fig. 1H); 6 h; about 10% in the absence of peptides
# Experimental: as §1, §2
# [1] = target: T1, Human hexokinase II (HK‐II), recombinant; experiment: MST
# [2] = target: B1; experiment: MST; fluorescently labeled HK‐I (830 nM) or HK‐II (100 nM) incubated 20 min with peptide (1–100 μM) in PBS; NanoTemper Monolith‐NT115, 40% LED, 40% IR laser power; conditions: both partners purified
# [3] = target: T2, Human hexokinase II (HK‐II), recombinant; experiment: as above; conditions: both partners purified
# [4] = target: voltage‐dependent anion channel 1 (VDAC1) (human (endogenous in HeLa), UniProt P21796 1-283); experiment: cell-based or functional assay
molecule,measurement,setting,value
HAIYPRHSWTWE-199-KKLETA VNLAWTAGNSN-216-KWTWK [Tf‐LP4],cell death induction in noncancerous cells,PWR‐1E,almost no cell death induction
same,cell death induction in noncancerous cells,"T‐Rex‐293; T‐Rex‐293, 6 h, PI/FACS (Fig. 2E)",almost no cell death induction
MAVPPTYADLGKSARDVFTKGYGFGLRQIKIWFQNRRMKWKK [N‐Ter‐Antp],steady‐state level of cell death,PANC1,about 50%
same,steady‐state level of cell death,"T‐Rex‐293; T‐Rex‐293 (Group 3, Fig. 1I), 6 h, about 10% in the absence of peptides",about 50%
"RQIKIWFQNRRMKWKKSWTWEKKLETAVNLAWTAGNSNKWTWK (amino acids added to form a loop‐shaped tryptophan zipper (N‐terminal arm); amino acids added to form a loop‐shaped tryptophan zipper (C‐terminal arm); 43 residues as printed; source: synthetic peptide (GL Biochem, > 85% purity)) [Antp‐LP4]",Kd,[1],7.1 µM
same,binding result,[2],binds
same,binding result,[3],binds
B1,"HK‐I in the cytosolic fraction (0.025% digitonin fractionation, immunoblot) of A549 cells treated with Tf‐D‐LP4 (3, 5, 10 μM, 3 h)",[4],~2 fold
same,"HK‐I in the cytosolic fraction (0.025% digitonin fractionation, immunoblot) of HeLa cells treated with R‐Tf‐D‐LP4 (3, 5, 10 μM, 3 h)",[4],~2 fold
